Data: patent US20190119377A1

Experiments:
[1] = target: human FcRn on FcRn-transfected 293FS cells (293FS+FcRn+β2m (clone #2)) (human) (UniProt P55899); assay: competition flow cytometry; displacement of AF488-labelled IgG1 (3.33 nM) from human FcRn-transfected 293FS cells, pH 5.5
[2] = target: CD16 on CD16-transfected NFAT-bla Jurkat cells (UniProt P08637); assay: competition flow cytometry; displacement of AF488-labelled human IgG1 (25 nM) from CD16-transfected NFAT-bla Jurkat cells
Chain of UniProt P08637 (P08637 17-254 limits assumed): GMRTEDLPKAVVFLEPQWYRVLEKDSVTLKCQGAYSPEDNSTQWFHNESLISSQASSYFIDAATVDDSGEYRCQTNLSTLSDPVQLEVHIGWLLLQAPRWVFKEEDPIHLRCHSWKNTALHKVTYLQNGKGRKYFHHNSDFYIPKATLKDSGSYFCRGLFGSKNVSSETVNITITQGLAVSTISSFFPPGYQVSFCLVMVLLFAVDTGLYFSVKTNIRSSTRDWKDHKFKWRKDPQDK

Chain of UniProt P55899 (P55899 24-365, chain 1 of 2): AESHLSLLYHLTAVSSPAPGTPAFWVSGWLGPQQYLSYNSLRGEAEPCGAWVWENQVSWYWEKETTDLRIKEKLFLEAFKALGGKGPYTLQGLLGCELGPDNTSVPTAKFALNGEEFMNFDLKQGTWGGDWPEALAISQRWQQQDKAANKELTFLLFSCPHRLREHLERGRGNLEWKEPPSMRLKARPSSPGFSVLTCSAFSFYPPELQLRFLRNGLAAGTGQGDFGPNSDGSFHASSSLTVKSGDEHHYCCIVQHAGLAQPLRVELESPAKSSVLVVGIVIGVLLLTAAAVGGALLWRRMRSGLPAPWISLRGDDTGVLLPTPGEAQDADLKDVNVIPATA
Chain of UniProt P55899 (P61769 21-119, chain 2 of 2, further chain): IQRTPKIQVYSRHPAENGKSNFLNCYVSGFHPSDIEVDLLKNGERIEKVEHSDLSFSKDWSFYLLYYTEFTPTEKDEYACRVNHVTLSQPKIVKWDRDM

**Q.** How did the Ki [1] turn out when human IgG1 (antibody) was run?
**A.** Its Ki is 0.2 µM.

**Q.** And the Ki [2]?
**A.** Its Ki is 0.225 µM.
